Assay results: patent US20120213799A1 (EISAI R AND D MANAGEMENT, published 2012)
Substitutions are numbered along the chain they refer to. Blank lines part the entries; values can stand above or below the binder they belong to.

Columns and labels:
[1] = molecular target: T1, recombinant human FKN (R&D Systems, Catalog No. 362-CX/CF) (human, UniProt P78423 25-100); experiment: cell-based or functional assay
T1 sequence: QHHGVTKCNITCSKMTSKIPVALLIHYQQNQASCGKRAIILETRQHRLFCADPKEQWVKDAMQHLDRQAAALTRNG

[2] = molecular target: T2, R68A mutated FKN-SEAP-His (human, UniProt P78423 25-340); experiment: sandwich ELISA, H3-2L4 coated, mutant hFKN-SEAP added, alkaline phosphatase read at 405 nm
T2 construct: also called R68A mutant; not shown: The SEAP reporter, the residues encoded by the NotI junction and the C-terminal (His)10 tag
T2 sequence: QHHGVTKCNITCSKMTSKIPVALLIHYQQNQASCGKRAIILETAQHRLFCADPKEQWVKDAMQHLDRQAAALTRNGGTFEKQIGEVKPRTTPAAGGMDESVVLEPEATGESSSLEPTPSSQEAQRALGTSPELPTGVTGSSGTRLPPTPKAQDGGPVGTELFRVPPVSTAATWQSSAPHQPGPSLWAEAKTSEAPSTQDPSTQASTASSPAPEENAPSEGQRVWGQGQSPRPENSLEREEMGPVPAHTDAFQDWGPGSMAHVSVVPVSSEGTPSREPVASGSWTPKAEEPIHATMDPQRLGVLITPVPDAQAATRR
Procedure: Mouse anti-human FKN monoclonal antibodies (1F3, 1G1, 2B2, 3D5, 6D1, 7F6) and H3-2L4 antibody were coated on an ELISA plate (Nunc) overnight at 4° C. The antibody solutions were removed. PBS solution containing 1% BSA was added to each well and incubated for 1 hour at room temperature, and the wells were washed with Tris-buffered saline (pH 7.4) containing 0.05% Tween 20. The wild type and R68A mutated FKN-SEAP-His solution (1, 0.5, 0.25, 0.125 nM) were added to the wells and incubated for 2 hours at room temperature. The antigen solutions were removed and washed with washing solution. p-Nitrophenyl phosphate solution (Thermo Scientific) was added to each well and incubated for 30 minutes at room temperature. The reaction was terminated with 1N NaOH solution and absorbance at 405 nm was measured.

[3] = molecular target: T3, soluble hFKN-SEAP (extracellular region of human fractalkine conjugated to secreted alkaline phosphatase) (human, UniProt P78423 25-341); experiment: BIACORE, mAb captured by anti-human IgG, FKN-SEAP as analyte
T3 construct: Used as culture supernatant of HEK293E cells; also called soluble FKN conjugated to SEAP; not shown: secreted alkaline phosphatase (SEAP) from the vector pcDNA3.1 (+) dSalI SEAP
T3 sequence: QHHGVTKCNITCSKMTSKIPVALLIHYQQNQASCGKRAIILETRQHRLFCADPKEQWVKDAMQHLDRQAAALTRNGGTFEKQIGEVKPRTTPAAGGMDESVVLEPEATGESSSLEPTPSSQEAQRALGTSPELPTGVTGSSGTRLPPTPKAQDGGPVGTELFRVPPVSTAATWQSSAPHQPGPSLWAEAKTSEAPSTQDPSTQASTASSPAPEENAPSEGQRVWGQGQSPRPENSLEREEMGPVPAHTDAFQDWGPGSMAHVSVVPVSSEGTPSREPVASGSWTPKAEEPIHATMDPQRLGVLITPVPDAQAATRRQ
Procedure: (§1) BIACORE® assays were performed as follows. Recombinant Protein-A/G (Pierce Chemical) was immobilized on BIACORE® sensor chips (CM5) that were pre-activated with amine coupling reagents (GE Healthcare). Purified mAbs were added into the sensor chips at a concentration of 0.2 μg/ml. Soluble antigens (soluble FKN conjugated to secreted alkaline phosphatase (SEAP) or control SEAP proteins) were added into the sensor chips at various concentrations (0 to 200 nM). Association of added antigens with mAbs captured on the sensor chips was monitored continuously, and the relative binding response of the antigens was determined using a BIACORE® A100 system (GE Healthcare).
The BIACORE® assays were performed as described above. However, for humanized and chimeric mAbs, anti-human IgG mouse mAb (GE Healthcare) was used as the capturing antibody on the sensor chip.

[4] = molecular target: T3, soluble hFKN-SEAP (extracellular region …); experiment: BIACORE, mAb captured on Protein-A/G, soluble FKN-SEAP as analyte (also ELISA on captured hFKN-SEAP)
Procedure: as §1
ELISAs were performed as follows. Polyclonal anti-rabbit IgG antibody (Jackson ImmunoResearch Laboratories, Catalog No. 711-005-152) was coated on the wells of a 96-well plate (Nunc, Catalog No. 442402). After overnight incubation at 4° C., the wells were blocked with 1× Block-Ace (DainipponPharma) for 1 hour at room temperature. After washing three times with 0.05% Tween 20/PBS, 10 nM rabbit polyclonal anti-PLAP antibody (Biomeda) was added to the wells (50 μl/well). […] An equal volume of stopping solution (2 M H₂SO₄) was added to the wells and the optical density at 450 nm was read by a microplate reader (Arvo, PerkinElmer).

CTX (IC50, nM) [1]: 0.2 nM
binding result [2]: no binding (tested: 0.13 nM)
B1: humanized anti-hFKN mAb H3-2L4-IgG2 (antibody, V domains shown)
VH: QVQLVQSGAEVKKPGASVKVSCKASGYTFTNYYIHWVKQAPGQGLEWIGWIYPGDGSPKFNERFKGRTTLTADKSTNTAYMLLSSLRSEDTAVYFCATGPTDGDYFDYWGQGTTVTVSS
VL: DIQMTQSPSSLSASVGDRVTITCRASGNIHNFLAWYQQKPGKAPKLLIYNEKTLADGVPSRFSGSGSGTDYTLTISSLQPEDFATYFCQQFWSTPYTFGGGTKVEIK
notes: also called H3-2L4 antibody

binding result [3]: binds
B2: humanized anti-hFKN mAb H3-2L2-IgG2 (antibody, V domains shown)
VH: B1 VH
VL: B1 VL with L46F, I48V, D70Q

binding result [3]: binds
B3: humanized anti-hFKN mAb H3-L4-IgG2 (antibody, V domains shown)
VH: B1 VH with E89D
VL: B1 VL

binding result [3]: binds
B4: humanized anti-hFKN mAb H3L2-IgG2 (antibody, V domains shown)
VH: B1 VH with E89D
VL: B1 VL with L46F, I48V, D70Q

binding result [4]: binds
B5: mouse anti-hFKN mAb clone 3A5-2 (antibody, mouse IgG2a, V domains shown)
VH: QVQLQQSGPELVKPGASVKMSCKASGYTFTNYYIHWVKQRPGQGLEWIGWIYPGDGSPKFNERFKGKTTLTADKSSNTAYMLLSSLTSEDSAIYFCATGPTDGDYFDYWGQGTTLTVSS
VL: DIQMTQSPASLSASVGETVTITCRASGNIHNFLAWYQQKQGKSPQFLVYNEKTLADGVPSRFSGSGSGTQYSLKINSLQPEDFGIYFCQQFWSTPYTFGGGTKLEIK
notes: Mouse monoclonal from hybridoma; Heavy chain was amplified with a mouse IgG2a CH3 primer and light chain with a mouse Ckappa primer; also called m3A5-2; m3A5-2 mAb

binding result [3]: binds
B6: mouse-human chimeric 3A5-2 mAb (antibody, human IgG2, V domains shown)
VH: B5 VH
VL: B5 VL
notes: also called chimeric mAb
